Laboratory results from paper PMC10542519.

What was measured:
[1] = target: PhiPA3 Chimallin C (ChmC; gp61), full-length (Pseudomonas phage PhiPA3); experiment: SEC-MALS
[2] = target: PhiPA3 ChmC-ΔC (residues 204-251 removed) (Pseudomonas phage PhiPA3); experiment: SEC-MALS

PhiPA3 Chimallin C (ChmC; gp61), full-length (natural protein)
stoichiometry N [1]: 4

PhiPA3 ChmC-ΔC (residues 204-251 removed) (domain or fragment)
stoichiometry N [2]: 4
